Molecular target: ephrin-A1-S6 (human ephrin-A1 with an internal S6 peptide tag, GPI-anchored) (human) (UniProt P20827)
Experiment: FRET or BRET; heteroFRET by flow cytometry (sensitised emission, compensated; efficiency from median fluorescence intensities); live HEK293 cells in suspension in DPBS + 0.5% BSA, S6-tagged receptor labelled with A547 and A647; for T-cadherin-S6 also followed in time after 10 μg/mL adiponectin

## ephrin-A1-S6 (human ephrin-A1 with an internal S6 peptide tag, GPI-anchored) (from UniProt P20827 19-182) (ligand)
  FRET efficacy: 14%
